# Reference: article PMC8099430, “CM1-driven assembly and activation of yeast γ-tubulin small complex underlies microtubule nucleation” (eLife, 2021)
# T1: Spc98p (S. cerevisiae, UniProt P53540 1-846)
# T1 construct: Spc98p, S. cerevisiae homologue of GCP3; the 674 a.a. built in the model are said to be 80% of the protein; also called GCP3 homologue; source: pFastBac-Spc98p construct; purified as part of γTuSC, prepared essentially as described (Vinh et al., 2002; Lyon et al., 2016)
# T1 sequence: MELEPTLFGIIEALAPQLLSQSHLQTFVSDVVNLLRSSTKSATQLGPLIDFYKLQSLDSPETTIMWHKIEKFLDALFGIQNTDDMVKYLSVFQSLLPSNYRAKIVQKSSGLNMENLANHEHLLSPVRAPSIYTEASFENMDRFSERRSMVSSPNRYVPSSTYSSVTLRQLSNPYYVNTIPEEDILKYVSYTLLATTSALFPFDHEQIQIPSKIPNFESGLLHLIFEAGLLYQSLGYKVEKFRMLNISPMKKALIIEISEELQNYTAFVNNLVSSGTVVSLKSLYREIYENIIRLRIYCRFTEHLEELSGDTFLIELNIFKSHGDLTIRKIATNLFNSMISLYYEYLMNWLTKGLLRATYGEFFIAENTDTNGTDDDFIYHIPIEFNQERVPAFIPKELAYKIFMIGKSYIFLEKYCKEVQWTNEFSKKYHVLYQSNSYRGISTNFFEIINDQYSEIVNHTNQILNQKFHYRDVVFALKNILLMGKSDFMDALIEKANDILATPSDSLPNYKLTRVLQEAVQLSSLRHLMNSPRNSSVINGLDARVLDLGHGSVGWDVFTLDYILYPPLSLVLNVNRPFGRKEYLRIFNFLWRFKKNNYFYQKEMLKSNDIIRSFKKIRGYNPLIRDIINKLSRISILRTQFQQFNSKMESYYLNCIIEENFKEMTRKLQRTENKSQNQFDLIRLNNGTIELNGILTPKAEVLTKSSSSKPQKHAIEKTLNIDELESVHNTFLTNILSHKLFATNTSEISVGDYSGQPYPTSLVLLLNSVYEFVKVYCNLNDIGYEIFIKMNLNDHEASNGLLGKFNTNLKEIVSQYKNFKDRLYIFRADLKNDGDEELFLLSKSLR
# B1: Spc97p (natural protein, S. cerevisiae)
# chain: MEIKEVDDRAELLRYTNNIPLLGKLVNHQPLWSTNPKLKSFSLEKISAPDQRRVQEALVVKDLLNVLIGLEGTYIRYFNDYEPSDPETPIEFKIAKKMDPSFKTFSRRIVRYGKQYMILTRAYEKWSDTSFGMVLQRFAYEIRRFLEDVYLKTLVERLERDFNKVPNFSIRELEQIINETEVNKQMELLYNIYEEIFREIEERRTNQSSQEDFNNFMDSMKNESSLHLRLMVAFDTTVYPVPKGGAILKIFQQKILENLGDRSSVMFLKKLLNNISQDYCTMLYEWLTQGILNDPYQEFMTYDDLEGKTDNIFDTRDRAWDTQYFIRKDVLLRDCDSEEDKNLLFKMLRTGILLKVVRASLQIPTIPSNSSDITIQEINDFADLMEGSNLELYVDKCYSRANEIFLKLFFQGYDLINVLKHLQQIFLGYQSGHNVLKFLTKNMGELTKHYRNDNNANYDKLLQNFELERQSENPNNLMRQLLMIQFDTETLPQVLSHYLQIYPEVPENNSANDDSDPLMHANNFKNMNAILFDELSKERTGAYHGSNLELYTPKSAIYHLKFDINIPYPLNIIISRTCMIKYQIILRYQLVLQYHSRLLDETWMDLNKTPSWKYRGYSHTVKRRIVRATRVLHAKMNHFIKTIMEYFNQNVIDKEVYSLEKCYRNPTLAVAIQNELEGGLTNIMTNRCLSDLIPLQLQIFDIVYKFCKFIKSMRAKLCQLDPVLYEKHKSGMMKTLNEGYRTNNGGQEDVGYQEDAALELIQKLIEYISNASSIFRKCLINFTQELSTEKFDFYDSSSVDAAGIERVLYSIVPPRSASASSQR
# notes: Spc97p, S. cerevisiae homologue of GCP2; the 712 a.a. built in the model are said to be 87% of the protein; also called GCP2 homologue; source: pFastBac-Spc97p construct; purified as part of γTuSC, prepared essentially as described (Vinh et al., 2002; Lyon et al., 2016)
# Legend:
# [1] = molecular target: γTuSC (Saccharomyces cerevisiae) (UniProt P53378); conditions: cited from earlier work
# Spc97p [2] = molecular target: B1; assay: cryo-EM structure; γTuRC^WT helical filaments of γTuSC with Spc110p^1-220 (open and closed classes); 40 mM HEPES pH 7.5, 2 mM MgCl2, 1 mM EGTA, 1 mM GDP, 100 mM KCl, 1 mM DTT, 2.5% glycerol; conditions: both partners purified
# Spc98p [3] = molecular target: T1, Spc98p; assay: as above; conditions: both partners purified
# Spc97p [4] = molecular target: B1; assay: cryo-EM structure; γTuRC^SS helical filaments (disulfide-trapped closed state) of γTuSC^SS with Spc110p^1-220; 40 mM HEPES pH 7.5, 2 mM MgCl2, 1 mM EGTA, 0.5 mM GTP, 100 mM KCl, 1 mM oxidized glutathione, 2.5% glycerol; conditions: both partners purified
# Spc98p [5] = molecular target: T1, Spc98p; assay: as above; conditions: both partners purified
# [6] = molecular target: the molecule itself; assay: cryo-EM structure; γTuRC^WT helical filaments of γTuSC with Spc110p^1-220 (open and closed classes); 40 mM HEPES pH 7.5, 2 mM MgCl2, 1 mM EGTA, 1 mM GDP, 100 mM KCl, 1 mM DTT, 2.5% glycerol
# Spc97p [7] = molecular target: B1; assay: cross-linking; XL-MS; DSS (0.44 mM, 3 min, RT) or EDC (5.4 mM plus 2.7 mM Sulfo-NHS, 30 min, RT); 0.4 µM γTuSC and 0.8 µM Spc110; 40 mM HEPES pH 7.0, 150 mM KCl; conditions: both partners purified
binding result (Spc98p [3]),binding result (Spc97p [4]),binding result (Spc98p [5]),Molecule,other results
,,,γTuSC (from UniProt P53378),Kd [1]: 2000 nM
binds,,,"γ-tubulin (Tub4p) (natural protein, S. cerevisiae, Tub4p, S. cerevisiae γ-tubulin; the 453 a.a. built in the model are said to be 96% of the protein; source: pFastBac-Tub4p construct; purified as part of γTuSC, prepared essentially as described (Vinh et al., 2002; Lyon et al., 2016)) MGGEIITLQAGQCGNHVGKFLWSQLAKEHAIGTDGLSQLPDSSTERDDDTKPFFRENSRNKFTPRAIMMDSEPSVIADVENTFRGFFDPRNTWVASDGASAGNSWANGYDIGTRNQDDILNKIDKEIDSTDNFEGFQLLHSVAGGTGSGLGSNLLEALCDRYPKKILTTYSVFPARSSEVVVQSYNTILALRRLIEDSDATVVFDNASLLNISGKVFRNPNIDLQHTNQLISTIISSVTNSIRFPSYMYSSMSSIYSTLIPSPELHFLSPSFTPFTSDYIHDDIAHKGHSSYDVMLDLLDPSNSLVSTAMNNPTYFNVYNTIIGNVEPRQISRAMTKLQQRIKFPSWSSSAMHVNIGRRSPYLPLQPNENEVSGMMLSNMSTVVNVFENACNTFDKVFAKGAFLNNYNVGDLFQSMQNVQDEFAESREVVQSLMEDYVAAEQDSYLDDVLVDDENMVGELEEDLDADGDHKLV",binding result (Spc97p [2]): binds
,binds,binds,"Tub4p S58C/G288C (natural protein, S. cerevisiae, engineered cysteines oxidised to disulfides (overnight dialysis into 1 mM oxidized glutathione), Tub4p, S. cerevisiae γ-tubulin, with S58C and G288C; also called γ-tubulin engineered with disulfides; γ-tubulin of γTuSC^SS / γTuRC^SS; source: pFastBac-Tub4p^S58C/G288C construct (Kollman et al., 2015); purified in filaments prepared essentially as described (Kollman et al., 2010; Kollman et al., 2015)) MGGEIITLQAGQCGNHVGKFLWSQLAKEHAIGTDGLSQLPDSSTERDDDTKPFFRENCRNKFTPRAIMMDSEPSVIADVENTFRGFFDPRNTWVASDGASAGNSWANGYDIGTRNQDDILNKIDKEIDSTDNFEGFQLLHSVAGGTGSGLGSNLLEALCDRYPKKILTTYSVFPARSSEVVVQSYNTILALRRLIEDSDATVVFDNASLLNISGKVFRNPNIDLQHTNQLISTIISSVTNSIRFPSYMYSSMSSIYSTLIPSPELHFLSPSFTPFTSDYIHDDIAHKCHSSYDVMLDLLDPSNSLVSTAMNNPTYFNVYNTIIGNVEPRQISRAMTKLQQRIKFPSWSSSAMHVNIGRRSPYLPLQPNENEVSGMMLSNMSTVVNVFENACNTFDKVFAKGAFLNNYNVGDLFQSMQNVQDEFAESREVVQSLMEDYVAAEQDSYLDDVLVDDENMVGELEEDLDADGDHKLV",
,binds,binds,"Spc110p^1-220 (domain or fragment, S. cerevisiae, UniProt P32380 1-220, looked up, also called Spc110^1-220; N-terminal domain of Spc110p; source: pFastBac-GST-Spc110p^1-220 construct; purified in filaments with γTuSC, prepared essentially as described (Kollman et al., 2010; Kollman et al., 2015)) MDEASHLPNGSLKNMEFTPVGFIKSKRNTTQTQVVSPTKVPNANNGDENEGPVKKRQRRSIDDTIDSTRLFSEASQFDDSFPEIKANIPPSPRSGNVDKSRKRNLIDDLKKDVPMSQPLKEQEVREHQMKKERFDRALESKLLGKRHITYANSDISNKELYINEIKSLKHEIKELRKEKNDTLNNYDTLEEETDDLKNRLQALEKELDAKNKIVNSRKVD",binding result [6]: binds
binds,,,B1,
,,,"Spc110p^1-401-GST (domain or fragment, S. cerevisiae, UniProt P32380 1-401, looked up, Spc110p, S. cerevisiae, residues 1-401; also called Spc110^1-401-GST; Spc110^1-401; not shown: GST, C-terminal, kept) MDEASHLPNGSLKNMEFTPVGFIKSKRNTTQTQVVSPTKVPNANNGDENEGPVKKRQRRSIDDTIDSTRLFSEASQFDDSFPEIKANIPPSPRSGNVDKSRKRNLIDDLKKDVPMSQPLKEQEVREHQMKKERFDRALESKLLGKRHITYANSDISNKELYINEIKSLKHEIKELRKEKNDTLNNYDTLEEETDDLKNRLQALEKELDAKNKIVNSRKVDDHSGCIEEREQMERKLAELERKLKTVKDQVLELENNSDVQSLKLRSKEDELKNLMNELNELKSNAEEKDTQLEFKKNELRKRTNELNELKIKSDEMDLQLKQKQNESKRLKDELNELETKFSENGSQSSAKENELKMLKNKIAELEEEISTKNSQLIAKEGKLASLMAQLTQLESKLNQRD",binding result (Spc97p [7]): binds
